According to article PMC3989220:
Like-named read-outs stand apart in the source and are kept apart here.

Columns and labels:
GKRP (Rattus norvegicus) = GKRP (Rattus norvegicus) (UniProt Q07071); details: cited from earlier work
[1] = target: Glucokinase (GK) cloned from rat hypothalamic tanycyte cultures, recombinant (rat) (UniProt P17712)
[2] = target: Glucokinase (GK) cloned from rat hypothalamic tanycyte cultures, recombinant (rat) (UniProt P17712); experiment: enzyme inhibition kinetics (glucose-6-phosphate dehydrogenase-coupled GK activity assay, Segel plot); GK saturation curves with glucose in the presence of 0.1 and 0.2 µM purified GKRP; 200 mM Tris-HCl pH 7.5, 2 mM MgCl2, 1 mM DTT, 1 mM ATP, 0.5 mM NADP+, 37°C, 5 min; Ki from Segel's graph for an allosteric modulator of a cooperative enzyme
[3] = target: Glucokinase (GK) cloned from rat hypothalamic tanycyte cultures, recombinant (rat) (UniProt P17712); experiment: as above; remark: listed apart in the source

UniProt Q07071, sequence (Q07071 whole entry): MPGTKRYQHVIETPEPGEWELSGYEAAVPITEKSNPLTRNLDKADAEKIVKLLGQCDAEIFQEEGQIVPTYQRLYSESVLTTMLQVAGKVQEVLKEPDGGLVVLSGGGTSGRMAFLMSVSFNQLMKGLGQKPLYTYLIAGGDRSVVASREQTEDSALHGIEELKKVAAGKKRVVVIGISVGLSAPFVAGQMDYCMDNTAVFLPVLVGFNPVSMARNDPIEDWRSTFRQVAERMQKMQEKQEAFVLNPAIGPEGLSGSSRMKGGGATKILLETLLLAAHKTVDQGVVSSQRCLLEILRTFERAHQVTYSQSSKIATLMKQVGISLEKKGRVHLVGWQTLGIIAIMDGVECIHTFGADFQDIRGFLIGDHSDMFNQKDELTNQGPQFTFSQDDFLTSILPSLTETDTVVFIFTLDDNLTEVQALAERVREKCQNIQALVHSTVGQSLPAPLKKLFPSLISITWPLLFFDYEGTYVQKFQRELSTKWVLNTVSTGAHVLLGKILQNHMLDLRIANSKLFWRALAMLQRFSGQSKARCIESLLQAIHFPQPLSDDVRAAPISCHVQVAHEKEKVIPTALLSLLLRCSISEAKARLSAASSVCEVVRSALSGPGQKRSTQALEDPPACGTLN

Row | GK activity (glucose-6-phosphate dehydrogenase-coupled assay) at 5 min with 10 mM glucose and 0.05-0.25 µM GKRP; IC50 by nonlinear extrapolation [1] [µM] | Ki [2] [µM] | Ki [3] [µM] | Substance | Ki (GKRP (Rattus norvegicus)) [µM]
1 |  |  |  | Glucokinase (from UniProt P17712) | 1
2 | 280 | 0.21 | 210 | Glucokinase regulatory protein (GKRP) cloned from rat hypothalamic tanycyte cultures, recombinant (from UniProt Q07071 1-627) (natural protein) | 
